# B1: 1.11.1: human anti-ALK-1 monoclonal antibody; VH SEQ ID NO: 10, VL SEQ ID NO: 12 (antibody, V domains shown)
# VH: QVQLVESGGGVVQPGRSLRLSCAASGFTFSSHGMYWVRQAPGKGLEWVAAIWYDGSNKYYADSVKGRFTISRDNSKNTLYLQMNSLRAEDTAVYYCARDQEQWPDVFDIWGQGTMVTVSS
# VL: DIQMTQSPSSLSASVGDRVTITCRASQGIRNYLAWFQQKPGKAPKSLIYGASSLQSGVPSKFSGSGSGTDFTLTISSLQPEDFATYYCQQYNSYPLTFGGGTKVEIK
# modifications: Human
# B2: 1.162.1: human anti-ALK-1 monoclonal antibody; VH SEQ ID NO: 26, VL SEQ ID NO: 28 (antibody, V domains shown)
# VH: QVQLQESGPGLVKPSQTLSLICTVSGGSISSGEYYWSWIRQHPGKGLEWIGYIYYSGSTYYNPSLKSRLTISVDTSKNQFSLKLSSVTAADTAVYYCAREGIGAFDIWGQGTMVTVSS
# VL: EIVLTQSPGTLSLSPGERATLSCRASQSVSSSYLAWYQQKPGQAPRLLIYGASSRATGIPDRFSGSGSGTDFTLTIIRLDPEDFAVYYCQRYGSSPITFGQGTRLEIK
# modifications: Human
# B3: 1.14.1: human anti-ALK-1 monoclonal antibody; VH SEQ ID NO: 18, VL SEQ ID NO: 20 (antibody, V domains shown)
# VH: QVQLQESGPGLVKPSETLSLTCTVSGGSVSSGDYYWNWIRQPPGKGLEWIGYIYYSGSTNYNPSLKSRVTISVDTSKNQFSLKLSSVTAADTAVYYCAREAVSAFDYWGQGTLVTVSS
# VL: EIVLTQSPGTLSLSPGERATLSCRASQSVSSTYLAWHQQKPGQAPRLLIYGVSSRASGVPDRFSGSGSGTDFTLTISRLEPEDFAVYYCQQYGSSPITFGQGTRLEIK
# modifications: Human
# B4: 4.72.1: human anti-ALK-1 monoclonal antibody; VH SEQ ID NO: 66, VL SEQ ID NO: 68 (antibody, V domains shown)
# VH: QVQLQESGPGLVKPSQTLSLTCTVSGGSISSGEYYWSWIRQHPGKGLEWIGYIFYSGSTYYNPSLKSRVTISLDTSKNQFSLKLSSVTAADTAVYYCARESTDGMDVWGQGTTVTVSS
# VL: EIVLTQSPGTLSLSPGERATLSCRASQSVSSSYLAWYQRKPGQAPRLLIYGVSSRATGIPDRFSGSGSGTDFTLTISRLEPEDFAVYYCQQYGSSMITFGQGTRLEIK
# modifications: Human
# Tests used:
# [1] = biological target: T1, Recombinant human ALK-1/FC chimera (Homo sapiens, UniProt P37023); assay: BIACORE cross-competition / epitope binning; format: binding; conditions: panel of 14 antibodies, 50 nM, primary/secondary injections
# T1 construct: purchased R&D Systems, Inc. 370-AL; host or cells: mouse myeloma cell line
# Experimental: Cross-competition experiments were performed using the BIACORE® 3000 instrument (Biacore International AB, Uppsala, Sweden and Piscataway, N.J.), following the manufacturer's protocols.
# Recombinant human ALK-1/FC chimera was immobilized onto the dextran layer of a CM5 biosensor chip using amine coupling. Chips were prepared using 10 mM acetate buffer pH 5.0 as the immobilization buffer and a protein density of 940 RU was achieved. Deactivation of unreacted N-hydroxysuccinimide esters was performed using 1 M ethanolamine hydrochloride, pH 8.5.
# Purified mAbs were diluted to a concentration of 50 nM in HBS-EP running buffer (0.01 M HEPES pH 7.4, 0.15 M NaCl, 3 mM EDTA, 0.005% Polysorbate 20). A primary antibody was chosen and then injected across the flow cell for 600 seconds at a rate of 10 μL/min. After the injection was complete, a secondary antibody was chosen and injected across the same flow cell for 600 seconds at a rate of 10 μL/min. The sensor surface was regenerated by a 12 second injection of 100 mM H3PO4 (25 μL/min).
# After regeneration, the primary antibody was again injected across the flow cell for 600 seconds at a rate of 10 μL/min. […] Threshold values were determined by using the same antibody as both the primary antibody and secondary antibody. […]
# [2] = biological target: T2, recombinant human ALK-1/Fc fusion protein (hALK-1/Fc) (Homo sapiens, UniProt P37023); assay: Avidity by surface plasmon resonance (BIACORE), immobilized hALK-1/Fc; format: binding; conditions: SPR, dissociation monitored 10 minutes
# T2 construct: purchased R&D Systems, Inc. 370-AL; host or cells: mouse myeloma cell line
# Experimental: Avidity measures of purified anti-ALK-1 antibodies by surface plasmon resonance using the BIACORE® 3000 instrument were performed as follows using the manufacturer's protocols.
# To perform kinetic analyses, recombinant human ALK-1/Fc fusion protein (hALK-1/Fc) and cynomologus ALK-1/Fc fusion protein (cALK-1/Fc) were immobilized on separate flow cells of a CM5 BIAcore sensor chip using routine amine coupling. […] Deactivation of unreacted N-hydroxysuccinimide esters was performed using 1 M ethanolamine hydrochloride, pH 8.5. Antibody samples in running buffer were prepared at concentrations ranging from 0.125 to 2 nM (a 0 nM solution comprising running buffer alone was included as a zero reference). Samples were randomized and injected in duplicate for 10 minutes each across all 4 flow cells using HBS-EP (10 mM HEPES pH 7.4, 150 mM NaCl, 3 mM EDTA, 0.005% Surfactant P20) as running buffer. […] A flow rate of 25 μL/min was used to determine avidity values. The dissociation of the antibody was monitored for 10 minutes, the surface regenerated by a 12 second injection of 100 mM H3PO4 (25 μL/min). The raw data were processed using the Scrubber (©BioLogic Software) software package and analyzed using the CLAMP (©BioLogic Software) software package. […]
# [3] = system: human vessels (human CD-31); assay: Collagen model in human foreskin-SCID chimera mice, human CD-31 staining; format: in vivo, human foreskin-SCID chimera mouse; conditions: 3.0 mg/ml Collagen, no HMVEC, 100 μg/ml id. injection
# Source text: Upon arrival from National Disease Research Institute and Cooperative Human Tissue Network, human foreskin pieces were trimmed of unhealthy regions and transferred to RPMI media (CELLGRO®/Mediatech, Cat# MT-15-040-CV supplemented with Penicillin and Streptamycin (GIBCO®/Life Tech, Cat# 15070-063) (add 5 mLs of the pen/strep stock solution into 500 mLs of RPMI). Using a scalpel and cutting in sterile petri dish, the skins were trimmed to an oval shape of approximately 8×13 mm cleaning any ragged ends and connective tissues, and stored on wet ice prior to surgery. The appropriate volume (4 μL/gram of animal) of 100 mg/mL (KeTASET®(ketamine), Fort Dodge Animal Health)/1 mg/mL medetomidine (Pfizer Animal Health-DORMITOR®(medetomidine)) solution was intraperitoneally injected into scid mouse abdomen (i.e., at a 45° angle, under skin but not too deep internally). Once anesthetized, the mice were applied with eye lubricant, a subcutaneuosly injection of Ketoprofen (10 mg/kg, Fort Dodge Animal Health) and hair was shaved over the site of the surgery. […] Complete healing occurred between 21-28 days after which time skins were ready to be inoculated with tumor cells.
# [4] = biological target: T3, monomeric ALK-ECD (Homo sapiens, UniProt P37023); assay: Affinity constants of representative mAbs by SPR (BIACORE), Example 8; format: binding; conditions: mAb immobilized (200-400 RU), monomeric ALK-ECD 3.125-400 nM, different ECD preparation than Example 7
# T3 construct: made in house; host or cells: 293T cells, transient, secreted (pSecTag2/Hygro)
# Experimental: Affinity measures (KD and koff) of purified anti-ALK-1 antibodies by surface plasmon resonance using the BIACORE® 3000 instrument were performed as follows using the manufacturer's protocols.
# To perform kinetic analyses, affinity-purified mAbs were immobilized onto the dextran layer of a CM5 biosensor chip using amine coupling. Surfaces were prepared using 10 mM acetate buffer pH 5.0 as the immobilization buffer and protein densities of 200-400 RU were achieved. Deactivation of unreacted N-hydroxysuccinimide esters was performed using 1 M ethanolamine hydrochloride, pH 8.5. Samples of monomeric ALK-ECD in running buffer were prepared at concentrations ranging from 3.125-400 nM (a 0 nM solution comprising running buffer alone was included as a zero reference). Samples were randomized and injected in duplicate for 2 minutes each across all 4 flow cells using HBS-EP (10 mM HEPES pH 7.4, 150 mM NaCl, 3 mM EDTA, 0.005% Surfactant P20) as running buffer. […] Dissociation of monomeric ALK-ECD was monitored for 10 minutes, the surface regenerated by a 12 second injection of 100 mM H3PO4 (25 μL/min). The raw data were processed using the Scrubber (©BioLogic Software) software package and analyzed using the CLAMP (©BioLogic Software) software package. The data were fit globally to a simple 1:1 Langmuir binding model.
molecule,measurement,setting,value
B1,epitope bin,[1],in one bin
B2,hALK-1/Fc koff,[2],1.1e-05 s⁻¹
B3,Human vessel scoring,[3]; 4 days of Rx,44 ± 28 1 × 10^3
same,% of Control (human vessels),"[3]; 4 days, control = isotype control antibody",59%
B4,off-rate,[4],2.5e-05 s⁻¹
same,on-rate,[4],32000 M⁻¹ s⁻¹

# Source: patent publication US7537762B2, “Human monoclonal antibodies to activin receptor-like kinase-1” (Amgen Fremont, Inc., priority 2005, dated 2009)
